Data published in the supplement of paper PMC10724198.
± gives the standard deviation of the averaged measurements.

Test system: Saccharomyces cerevisiae
Test: protein stability index of tFT-peptide fusion (C-terminal peptide) (PSI (0-1 scale)); higher = more stable (slower turnover)
Settings: temperature: 30 C
Method: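 MPS profiling in S. cerevisiae of the yeast C-terminome library: the last 12 aa of each annotated ORF are fused to the C-terminus of a sfGFP-mCherry timer, after a GGGS linker. Cells are FACS-sorted into 8 mCherry/sfGFP bins and deep-sequenced. PSI runs from 0 (unstable) to 1 (stable); wild type and das1Δ backgrounds, two technical replicates each.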

[1] = genetic background: das1 deletion

| Sequence | protein stability index [1] | protein stability index (genetic background: wild type) |
| --- | --- | --- |
| SAIENYRKAYGI [URA10 C-terminal 12 aa] | 0.664 ± 0.038 | 0.69935 ± 0.00068 |
| AQGKLIMNVEKF [AST1 C-terminal 12 aa] | 0.712 ± 0.05 | 0.689 ± 0.019 |
| QSATKNQQNQGK [SSQ1 C-terminal 12 aa] | 0.679 ± 0.011 | 0.656 ± 0.01 |
| QDRSCSWLKLLL [YLR171W C-terminal 12 aa] | 0.685 ± 0.021 | 0.704 ± 0.021 |
| FEDCCRWNEKQG [HIS6 C-terminal 12 aa] | 0.668 ± 0.022 | 0.694 ± 0.016 |
| NINGTTAAVDVN [PAP1 C-terminal 12 aa] | 0.661 ± 0.0093 | 0.658 ± 0.01 |
| KNHDFKDCADIF [SWH1 C-terminal 12 aa] | 0.721 ± 0.017 | 0.688 ± 0.043 |
| GDIIKLRESVNA [YJL215C C-terminal 12 aa] | 0.6729 ± 0.0061 | 0.73 ± 0.05 |
| SFFIYVNFTVYF [YCR001W C-terminal 12 aa] | 0.175 ± 0.036 | 0.178 ± 0.033 |
| SSTVESTNINME [MRT4 C-terminal 12 aa] | 0.6903 ± 0.0023 | 0.721 ± 0.00096 |
| LAVEETIGFGQE [RSP5 C-terminal 12 aa] | 0.7037 ± 0.0066 | 0.692 ± 0.011 |
| SHEQKFENVQKE [STF2 C-terminal 12 aa] | 0.711 ± 0.017 | 0.705 ± 0.012 |
| NFTIHRPLNNGR [YDL062W C-terminal 12 aa] | 0.731 ± 0.044 | 0.734 ± 0.027 |
| VFISTVLLAIVW [YAL065C C-terminal 12 aa] | 0.196 ± 0.015 | 0.192 ± 0.0067 |
| SRSNSHRTFFKR [FPK1 C-terminal 12 aa] | 0.737 ± 0.053 | 0.714 ± 0.043 |
| LVSNSDTNIVWP [YMR247W-A C-terminal 12 aa] | 0.68696 ± 0.00059 | 0.712 ± 0.015 |
| KVRTQSKQPQEE [SAW1 C-terminal 12 aa] | 0.682 ± 0.021 | 0.673 ± 0.026 |
| YDLEAGENKFNF [URA7 C-terminal 12 aa] | 0.7022 ± 0.0022 | 0.703 ± 0.0099 |
| KDSKEYFKNANN [TSA2 C-terminal 12 aa] | 0.714 ± 0.022 | 0.716 ± 0.02 |
| KHCPYVFIPYVF [ERG4 C-terminal 12 aa] | 0.5262 ± 0.00096 | 0.273 ± 0.0033 |
| PADIATDHDITM [TAF8 C-terminal 12 aa] | 0.717 ± 0.013 | 0.685 ± 0.0044 |

| Sequence | protein stability index [1] | protein stability index (genetic background: wild type) |
| --- | --- | --- |
| KIVSGLVRTNSS [YIL060W C-terminal 12 aa] | 0.703 ± 0.019 | 0.717 ± 0.024 |
| TRKWANAAKGMP [YLR407W C-terminal 12 aa] | 0.6889 ± 0.0067 | 0.727 ± 0.012 |
| RRNRGTPVKYTR [DOT1 C-terminal 12 aa] | 0.6965 ± 0.0024 | 0.7 ± 0.016 |
| APAEQTQGEPTK [BMH2 C-terminal 12 aa] | 0.71 ± 0.013 | 0.677 ± 0.012 |
| LVSQRITGPGVF [ASI2 C-terminal 12 aa] | 0.687 ± 0.0099 | 0.681 ± 0.0099 |
| NYFIITCIGIIM [YPL261C C-terminal 12 aa] | 0.228 ± 0.029 | 0.247 ± 0.0067 |
| KFQDVLDNFLQG [ETT1 C-terminal 12 aa] | 0.713 ± 0.019 | 0.685 ± 0.01 |
| LVAIDPRSEAYC [YMR324C C-terminal 12 aa] | 0.68838 ± 0.00058 | 0.671 ± 0.012 |
| SRIQNASASGEI [TIM13 C-terminal 12 aa] | 0.685 ± 0.015 | 0.715 ± 0.015 |
| AKERLNPPSNRR [NIP1 C-terminal 12 aa] | 0.708 ± 0.014 | 0.688 ± 0.02 |
| AVKINRNGKPRI [TAO3 C-terminal 12 aa] | 0.698 ± 0.014 | 0.6846 ± 0.0048 |
| TDIENRNFRYIY [THI73 C-terminal 12 aa] | 0.6944 ± 0.0043 | 0.702 ± 0.022 |
| TDTEAEDDESPE [SEC63 C-terminal 12 aa] | 0.692 ± 0.025 | 0.633 ± 0.013 |
| HISLKCIVYKEY [YER135C C-terminal 12 aa] | 0.638 ± 0.0081 | 0.665 ± 0.016 |
| DISDSEGGLFEC [PCI8 C-terminal 12 aa] | 0.69 ± 0.085 | 0.694 ± 0.085 |
| LDSVFSKFCIGK [MSS1 C-terminal 12 aa] | 0.7 ± 0.0095 | 0.703 ± 0.082 |
| KNLQNELEKNNA [RTN1 C-terminal 12 aa] | 0.6887 ± 0.0022 | 0.6647 ± 0.0021 |
| QLQDLLSSENNK [AIM11 C-terminal 12 aa] | 0.7169 ± 0.0021 | 0.688 ± 0.032 |
| NGYFGYAPGHYP [OPT2 C-terminal 12 aa] | 0.6844 ± 0.0056 | 0.708 ± 0.031 |
| ATALSGHKANCN [MTQ1 C-terminal 12 aa] | 0.6878 ± 0.0049 | 0.6424 ± 0.0012 |
| CLCLINLCCDVF [YDR034W-B C-terminal 12 aa] | 0.267 ± 0.0034 | 0.295 ± 0.0068 |

| Sequence | protein stability index [1] | protein stability index (genetic background: wild type) |
| --- | --- | --- |
| AKCGEWTPELSS [CPR2 C-terminal 12 aa] | 0.71451 ± 0.00067 | 0.731 ± 0.014 |
| DYKKFIEDVLRQ [MLC1 C-terminal 12 aa] | 0.696 ± 0.033 | 0.702 ± 0.04 |
| RSVGKNSEKVST [QDR1 C-terminal 12 aa] | 0.6986 ± 0.0019 | 0.695 ± 0.01 |
| SYKWLKRETSPL [FRA1 C-terminal 12 aa] | 0.712 ± 0.024 | 0.689 ± 0.022 |
| IHNDIPSHRKLK [FIR1 C-terminal 12 aa] | 0.699 ± 0.022 | 0.6589 ± 0.0014 |
| EAELEEDWGMYG [YBR062C C-terminal 12 aa] | 0.7114 ± 0.0068 | 0.7097 ± 0.0017 |
| KHKQYFWKRPTK [PLM2 C-terminal 12 aa] | 0.714 ± 0.015 | 0.692 ± 0.019 |
| EGGDLEYQHVKI [YCR043C C-terminal 12 aa] | 0.691 ± 0.0077 | 0.682 ± 0.03 |
| LPNTISSETFLK [SCEI C-terminal 12 aa] | 0.661 ± 0.0076 | 0.702 ± 0.018 |
| EYSKKYLTTFFQ [YEA6 C-terminal 12 aa] | 0.706 ± 0.025 | 0.722 ± 0.03 |
| KPMAYSNGGFGL [PPT1 C-terminal 12 aa] | 0.674 ± 0.015 | 0.668 ± 0.015 |
| RVRRRLFAPEST [SLD3 C-terminal 12 aa] | 0.716 ± 0.018 | 0.802 ± 0.075 |
| LPIWDPMGALAK [LAP3 C-terminal 12 aa] | 0.703 ± 0.0072 | 0.739 ± 0.06 |
| LSKKTSGTHTTH [YBR182C-A C-terminal 12 aa] | 0.681 ± 0.015 | 0.6949 ± 0.005 |
| QEISYKFSKTYS [IME1 C-terminal 12 aa] | 0.676 ± 0.021 | 0.664 ± 0.038 |
| YLEHQQIHGRVV [YHR145C C-terminal 12 aa] | 0.679 ± 0.017 | 0.691 ± 0.013 |
| TSHEAVAAKKLI [SHC1 C-terminal 12 aa] | 0.673 ± 0.018 | 0.249 ± 0.011 |
| TSDHLFVVFFFW [YDL034W C-terminal 12 aa] | 0.327 ± 0.019 | 0.319 ± 0.035 |
| KTGKKNKVAKKN [SRP14 C-terminal 12 aa] | 0.682 ± 0.0078 | 0.692 ± 0.021 |
| RKFSSSTNLAKF [TOS8 C-terminal 12 aa] | 0.779 ± 0.039 | 0.81 ± 0.012 |
| PVSESSSPNSWP [YDR230W C-terminal 12 aa] | 0.768 ± 0.012 | 0.706 ± 0.02 |

| Sequence | protein stability index [1] | protein stability index (genetic background: wild type) |
| --- | --- | --- |
| INDNNENASNSV [GLD1 C-terminal 12 aa] | 0.6943 ± 0.0069 | 0.676 ± 0.024 |
| CEYGTNAIDALI [YER091C-A C-terminal 12 aa] | 0.7311 ± 0.0014 | 0.6917 ± 0.0036 |
| SDQKGGRSVSTS [YLR001C C-terminal 12 aa] | 0.6896 ± 0.0021 | 0.734 ± 0.017 |
| EPMESLRSTTKY [PTR2 C-terminal 12 aa] | 0.734 ± 0.022 | 0.697 ± 0.01 |
| TKCEEEIKNLSK [YME2 C-terminal 12 aa] | 0.698 ± 0.022 | 0.711 ± 0.036 |
| TLSMYPRRRFYH [GPG1 C-terminal 12 aa] | 0.709 ± 0.011 | 0.608 ± 0.043 |
| SSSGTSSSHLEL [APL6 C-terminal 12 aa] | 0.702 ± 0.0062 | 0.672 ± 0.028 |
| WVDAFGIIYGAL [YIL108W C-terminal 12 aa] | 0.7436 ± 0.0063 | 0.7232 ± 0.0018 |
| IFCFDNYRSCYC [YKL031W C-terminal 12 aa] | 0.7071 ± 0.0034 | 0.678 ± 0.038 |
| QSQYSSRFVELD [MCO12 C-terminal 12 aa] | 0.691 ± 0.015 | 0.6892 ± 0.0068 |
| PTPPGLQGPPGL [MSL5 C-terminal 12 aa] | 0.692 ± 0.018 | 0.693 ± 0.0097 |
| LSSVKVRQLRNM [RBH2 C-terminal 12 aa] | 0.681 ± 0.021 | 0.205 ± 0.0043 |
| KPFYYKIYRFWC [SAM3 C-terminal 12 aa] | 0.735 ± 0.024 | 0.3886 ± 0.0019 |
| IHRVIKNATPVA [PEX28 C-terminal 12 aa] | 0.624 ± 0.027 | 0.649 ± 0.026 |
| LENIKKAKEFFQ [GTR1 C-terminal 12 aa] | 0.726 ± 0.012 | 0.705 ± 0.027 |
| ELLCKGICKAAE [HEL1 C-terminal 12 aa] | 0.6857 ± 0.0035 | 0.674 ± 0.017 |
| TQEKLDSLLLMQ [LGE1 C-terminal 12 aa] | 0.702 ± 0.011 | 0.6982 ± 0.006 |
| AVHLQAIDLLNC [PIR1 C-terminal 12 aa] | 0.714 ± 0.024 | 0.672 ± 0.01 |
| RKGWTGFKKVFK [GYP5 C-terminal 12 aa] | 0.695 ± 0.025 | 0.699 ± 0.061 |
